In patent US20040162413A1 (published 2004):
Residue numbers refer to the chain shown, from its start. Numbers in names are those of the source.

B1: NMC-4 antibody (parental/donor antibody) (antibody, V domains shown)
VH: VQLLESGPGLVAPSQSLSITCTVSGFSLTDYGVDWVRQPPGKGLEWLGMIWGDGSTDYNSALKSRLSITKDNSKSQVFLKMNSLQTDDTARYYCVRDPADYGNYDYALDYWGQGTSVTVS
VL: SSLSASLGDRVTISCSASQDINKYLNWYQQKPDGAVKLLIFYTSSLHSGVPSRFSGSGSGTDYSLTISNLEPEDIATYYCQQYEKLPWTFGGGTKLEVK
notes: also called parental/donor NMC-4 antibody
B2: chimeric anti-CD40 Fab (variable regions of murine mAb 40.2.220) (Fab, V domains shown)
VH: QIQLVQSGPELKKPGETVRISCKASGYAFTTTGMQWVQEMPGKGLKWIGWINTHSGVPKYVEDFKGRFAFSLETSANTAYLQISNLKNEDTATYFCVRSGNGNYDLAYFAYWGQGTLVTVSA
VL: DIVLTQSPATLSVTPGDRVSLSCRASQSISDYLHWYQQKSHESPRLLIKYASHSISGIPSRFSGSGSGSDFTLSINSVEPEDVGIYYCQHGHSFPRTFGGGTKLEIK
notes: Fab expressed in bacteria from vector M13IX104CS (human kappa and gamma 1 constant regions, terminal cysteines replaced by serine); purified Fabs carry a six-histidine tag at the C-terminus of the H chain; also called chimeric Fab; chimeric CD40
B3: Y49K, derivative of clone CW43 made by site-directed mutagenesis (anti-CD40 Fab) (Fab, V domains shown)
VH: QVQLVQSGPELKKPGASVKVSCKASGYAFTTTGMQWVRQAPGQGLEWMGWINTHSGVPKYVEDFKGRFVFSLDTSVSTAYLQISSLKAEDTAVYFCARSGNGNYDLAYFRYWGQGTLVTVSS
VL: EIVLTQSPATLSLSPGERATLSCRASQSISDYLHWYQQKPGQAPRLLIKYASHSISGIPARFSGSGSGTDFTLTISSLEPEDFAVYYCQHGHSFPRTFGGGTKVEIK
notes: Fab, human constant regions; framework identical to clone 1H11; also called clone Y49K
B4: anti-vWF combinatorial library clone C1 Fab (Fab, V domains shown)
VH: EVQLVESGGGLVQPGGSLRLSCAASGFSLGDYGVDWVRQAPGKGLEWVGMIWPDGSTDYNSALQSRFTISRDDSKNSLYLQMNSLKTEDTAVYYCARDPADYGNYNYALDYWGQGTTVTVS
VL: DIQMTQSPSSLSASVGDRVTITCSASQDINDYLNWYQQKPGKAPKLLIYNTSSLHSGVPSRFSGSGSGTDFTLTISSLQPEDFATYYCQQYEDLPWTFGGGTKVEIK
notes: Fab with human CL and CH1
B5: anti-vWF combinatorial library clone C4 Fab (Fab, V domains shown)
VH: B4 VH with P53G, T57V, Y59V
VL: B4 VL with N50G
notes: Fab with human CL and CH1

Experiments:
[1] = target: T1, human von Willebrand Factor (human, UniProt P04275 764-2813); assay: ELISA: human vWF captured on goat anti-human vWF coated plates, Fab dilutions, goat anti-human kappa alkaline phosphatase, O.D. 560 after 30 min
T1 construct: In the ELISA captured on plates by goat anti-human vWF; biotinylated in the plaque lift; also called vWF; human vWF

CD40-Ig fusion protein [2] = target: T2, CD40-Ig fusion protein (UniProt P25942 21-193); assay: SPR (BIAcore), CD40-Ig immobilised, purified Fab in solution
T2 construct: also called CD40-Ig antigen; CD40 receptor; not shown: Ig part, not described; in the ELISA and capture lift it is detected with goat anti-mouse IgG2b conjugate
T2 sequence (P25942 21-193): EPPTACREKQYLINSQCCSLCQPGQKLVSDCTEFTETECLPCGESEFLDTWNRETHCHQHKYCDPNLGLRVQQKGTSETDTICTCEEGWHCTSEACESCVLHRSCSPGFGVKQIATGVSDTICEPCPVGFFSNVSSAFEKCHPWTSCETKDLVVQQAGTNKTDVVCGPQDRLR

CD40-Ig fusion protein [3] = target: T2, CD40-Ig fusion protein; assay: SPR (BIAcore), CD40-Ig immobilised

| Binder | EC50 (read off the curve) [1] [µg/mL] | Kd (CD40-Ig fusion protein [2]) [nM] | fold lower affinity against CW43 (CD40-Ig fusion protein [3]) [fold] |
| --- | --- | --- | --- |
| B1 | ~0.03 | – | – |
| B2 | – | 48.3 | – |
| B3 | – | 53.4 | 5 |
| B4 | ~0.02 | – | – |
| B5 | ~0.02 | – | – |
